Data reported in US12723255B2, “Herbicide tolerance genes and methods of use thereof” (priority 2014, dated 2026).

Experiments:
Type in all cases: in vivo
transgenic maize plants = experiment: trait efficacy field trials with homozygous inbred plants, CTP evaluation; conditions: crop injury percentage
From the text: To evaluate different chloroplast targeting peptides (CTP), plant transformation vectors were constructed, each comprising a recombinant DNA molecule optimized for monocot expression and encoding MON-HTI (SEQ ID NO: 16), MON-HT2 (SEQ ID NO:20), and MON-HT8 (SEQ ID NO:39), MON-HT9 (SEQ ID NO:42), or MON-HT10 (SEQ ID NO:45). The vectors were created using the same combination of promoter, leader, intron, and 3′-UTR, but with one of three separate CTPs (A, B, or C) or without a CTP operably linked to the protein-coding sequence. The DNA constructs were used to transform immature maize (LH244) embryos using Agrobacterium tumifaciens and standard methods known in the art. Regenerated RO transgenic plantlets were grown in the green house. The R0 plants were selfed to generate R1 homozygous seed. The R0 plants were also used as the male to cross with inbred plants containing maize event MON89034 to generate segregating F1 hybrid seed for trait efficacy field trials.
Separate trait efficacy field trials for quizalofop-P and 2,4-D were conducted at two locations each with the homozygous inbred transgenic plants (R2 or R4 generation). In these field trials, one of two herbicide treatments was used: (1) quizalofop-P (Assure II) at 0.16 lb ai/acre (2×) plus 0.25% v/v non-ionic surfactant (NIS) applied at V4 growth stage followed by the same at V8 growth stage; or (2) 2,4-D amine at 2 lb ae/acre (2×) plus 0.25% v/v non-ionic surfactant (NIS) applied to V4 followed by V8. Injury ratings (crop injury percentage at V4 (CIPV4) or V8 (CIPV8)) were taken 10 to 14 days after the V4 and V8 applications. Error was calculated using LSD (0.05).

F1 hybrid maize plants [1] = experiment: trait efficacy field trial, quizalofop-P pressure screening, F1 hybrid; conditions: crop injury percentage; for 4X Qizalofop-P CIPV4 / 4X Qizalofop-P CIPV8: 0.32 lb ai/acre at VE-V2, V4, V8; for 8X Qizalofop-P CIPV4 / 8X Qizalofop-P CIPV8: 0.64 lb ai/acre at VE-V2, V4, V8; for 16X Qizalofop-P CIPV4 / 16X Qizalofop-P CIPV8: 1.28 lb ai/acre at VE-V2, V4, V8
Method: (§1) Separate trait efficacy field trials for quizalofop-P and 2,4-D pressure screening were conducted at one location each with F1 hybrid transgenic plants produced by crossing an inbred plant containing maize event MON89034 with an R1 plant containing MON-HT1, MON-HT2, MON-HT8, MON-HT9, and MON-HT10 with and without operably linked CTP sequences. Transgenic F1 hybrid plants containing maize events NK603×MON89034 were used for comparison as a control.
In the trait efficacy field trial for quizalofop-P tolerance, one of three herbicide treatments was used: (1) quizalofop-P (Assure II) at 0.32 lb ai/acre (4×) plus 0.25% v/v non-ionic surfactant (NIS) applied at VE-V2 growth stage followed by the same at V4 growth stage followed by the same at V8 growth stage; (2) quizalofop-P at 0.64 lb ai/acre (8×) plus 0.25% v/v NIS applied at VE-V2 growth stage followed by the same at V4 growth stage followed by the same at V8 growth stage; or (3) quizalofop-P at 1.28 lb ai/acre (16×) plus 0.25% v/v NIS applied at VE-V2 growth stage followed by the same at V4 growth stage followed by the same at V8 growth stage. Plots were visually rated as above. […] The injury rating for the control plants after all quizalofop-P application was 100%. Error was calculated using LSD (0.05).

F1 hybrid maize plants [2] = experiment: trait efficacy field trial, 2,4-D pressure screening, F1 hybrid; conditions: crop injury percentage; for 4X 2,4-D CIPV4 / 4X 2,4-D CIPV8: 4 lb ae/acre at VE-V2, V4, V8; for 8X 2,4-D CIPV4 / 8X 2,4-D CIPV8: 8 lb ae/acre at VE-V2, V4, V8; for 16X 2,4-D CIPV4 / 16X 2,4-D CIPV8: 16 lb ae/acre at VE-V2, V4, V8
Method: as §1
Three herbicide treatments were used in the trait efficacy field trial for 2,4-D tolerance: (1) 2,4-D amine at 4 lb ac/acre (4×) plus 0.25% v/v NIS applied to VE-V2 followed by V4 followed by V8; (2) 2,4-D amine at 8 lb ac/acre (8×) plus 0.25% v/v NIS applied to VE-V2 followed by V4followed by V8 maize; or (3) 2,4-D amine at 16 lb ac/acre (16×) plus 0.25% v/v NIS applied to VE-V2 followed by V4 followed by V8. Plots were visually rated as above.
The injury rating for the control plants after all 2,4-D applications ranged from 80% to 96.25%. At the highest rate of 2,4-D (16×) applied through V8, the plants containing MON-HT1 or MON-HT2 operably linked to any of the three CTPs (A, B, or C) had better tolerance than plants containing MON-HT1 or MON-HT2 not operably linked to a CTP. Plants containing MON-HT1, MON-HT2, or MON-HT8 with or without an operably linked CTP had better tolerance to 2,4-D at all applications tested compared to plants containing either MON-HT9 or MON-HT10 with an operably linked ‘A’ CTP. Over the range of 2,4-D applications the relative ranking of tolerance was: plants containing MON-HT1 had better tolerance than plants containing MON-HT2 which were in turn better than plants containing MON-HT8. […] Error was calculated using LSD (0.05).

[3] = CTP B, 0.16 lb ai/acre at V4, V8
[4] = CTP C, 0.16 lb ai/acre at V4, V8
[5] = no CTP, 0.16 lb ai/acre at V4, V8

B1: MON-HT1: engineered oxygenase protein, amino acid sequence SEQ ID NO:14 (protein)
chain: MHAALTPLTNKYRFIDVQPLTGVLGAEITGVDLREPLDDSTWNEILDAFHTYQVIYFPGQAITNEQHIAFSRRFGPVDPVPILKSIEGYPEVQMIRREANESSRFIGDDWHTDSTFLDAPPAAVVMRAIEVPEYGGDTGFLSMYSAWETLSPTMQATIEGLNVVHSATKVFGSLYQATNWRFSNTSVKVMDVDAGDRETVHPLVVTHPVTGRRALYCNQVYCQKIQGMTDAESKSLLQFLYEHATKFDFTCRVRWKKDQVLVWDNLCTMHRAVPDYAGKFRYLTRTTVAGDKPSR
- 2X Quizalofop-P CIPV4 (transgenic maize plants; CTP A, 0.16 lb ai/acre at V4, V8, LSD (0.05) = 1.45): 0
- 2X Quizalofop-P CIPV8 (transgenic maize plants; CTP A, 0.16 lb ai/acre at V4, V8, LSD (0.05) = 2.2): 2.125
- 2X 2,4-D CIPV4 (transgenic maize plants; CTP A, 2 lb ae/acre at V4, V8, LSD (0.05) = 0.95): 0
- 2X 2,4-D CIPV8 (transgenic maize plants; CTP A, 2 lb ae/acre at V4, V8, LSD (0.05) = 1.6): 2.5
- 2X Quizalofop-P CIPV4 (transgenic maize plants; [3]): 0
- 2X Quizalofop-P CIPV8 (transgenic maize plants; [3]): 1.75
- 2X 2,4-D CIPV4 (transgenic maize plants; CTP B, 2 lb ae/acre at V4, V8): 0
- 2X 2,4-D CIPV8 (transgenic maize plants; CTP B, 2 lb ae/acre at V4, V8): 1.25
- 2X Quizalofop-P CIPV4 (transgenic maize plants; [4]): 0
- 2X Quizalofop-P CIPV8 (transgenic maize plants; [4]): 1.75
- 2X 2,4-D CIPV4 (transgenic maize plants; CTP C, 2 lb ae/acre at V4, V8): 1.25
- 2X 2,4-D CIPV8 (transgenic maize plants; CTP C, 2 lb ae/acre at V4, V8): 1.25
- 2X Quizalofop-P CIPV4 (transgenic maize plants; [5]): 0
- 2X Quizalofop-P CIPV8 (transgenic maize plants; [5]): 1.25
- 2X 2,4-D CIPV4 (transgenic maize plants; no CTP, 2 lb ae/acre at V4, V8): 0
- 2X 2,4-D CIPV8 (transgenic maize plants; no CTP, 2 lb ae/acre at V4, V8): 1.25
- 4X Qizalofop-P CIPV4 (F1 hybrid maize plants [1]; CTP A): 0
- 4X Qizalofop-P CIPV8 (F1 hybrid maize plants [1]; CTP A): 7.5
- 8X Qizalofop-P CIPV4 (F1 hybrid maize plants [1]; CTP A): 2.5
- 8X Qizalofop-P CIPV8 (F1 hybrid maize plants [1]; CTP A): 10
- 16X Qizalofop-P CIPV4 (F1 hybrid maize plants [1]; CTP A): 5
- 16X Qizalofop-P CIPV8 (F1 hybrid maize plants [1]; CTP A): 15
- 4X Qizalofop-P CIPV4 (F1 hybrid maize plants [1]; CTP B): 2.5
- 4X Qizalofop-P CIPV8 (F1 hybrid maize plants [1]; CTP B): 5
- 8X Qizalofop-P CIPV4 (F1 hybrid maize plants [1]; CTP B): 2.5
- 8X Qizalofop-P CIPV8 (F1 hybrid maize plants [1]; CTP B): 7.5
- 16X Qizalofop-P CIPV4 (F1 hybrid maize plants [1]; CTP B): 2.5
- 16X Qizalofop-P CIPV8 (F1 hybrid maize plants [1]; CTP B): 20
- 4X Qizalofop-P CIPV4 (F1 hybrid maize plants [1]; CTP C): 0
- 4X Qizalofop-P CIPV8 (F1 hybrid maize plants [1]; CTP C): 5
- 8X Qizalofop-P CIPV4 (F1 hybrid maize plants [1]; CTP C): 2.5
- 8X Qizalofop-P CIPV8 (F1 hybrid maize plants [1]; CTP C): 10
- 16X Qizalofop-P CIPV4 (F1 hybrid maize plants [1]; CTP C): 5
- 16X Qizalofop-P CIPV8 (F1 hybrid maize plants [1]; CTP C): 20
- 4X Qizalofop-P CIPV4 (F1 hybrid maize plants [1]; no CTP): 2.5
- 4X Qizalofop-P CIPV8 (F1 hybrid maize plants [1]; no CTP): 10
- 8X Qizalofop-P CIPV4 (F1 hybrid maize plants [1]; no CTP): 10
- 8X Qizalofop-P CIPV8 (F1 hybrid maize plants [1]; no CTP): 22.5
- 16X Qizalofop-P CIPV4 (F1 hybrid maize plants [1]; no CTP): 22.5
- 16X Qizalofop-P CIPV8 (F1 hybrid maize plants [1]; no CTP): 37.5
- 4X 2,4-D CIPV4 (F1 hybrid maize plants [2]; CTP A): 5
- 4X 2,4-D CIPV8 (F1 hybrid maize plants [2]; CTP A): 5
- 8X 2,4-D CIPV4 (F1 hybrid maize plants [2]; CTP A): 5
- 8X 2,4-D CIPV8 (F1 hybrid maize plants [2]; CTP A): 10
- 16X 2,4-D CIPV4 (F1 hybrid maize plants [2]; CTP A): 7.5
- 16X 2,4-D CIPV8 (F1 hybrid maize plants [2]; CTP A): 15
- 4X 2,4-D CIPV4 (F1 hybrid maize plants [2]; CTP B): 5
- 4X 2,4-D CIPV8 (F1 hybrid maize plants [2]; CTP B): 5
- 8X 2,4-D CIPV4 (F1 hybrid maize plants [2]; CTP B): 5
- 8X 2,4-D CIPV8 (F1 hybrid maize plants [2]; CTP B): 10
- 16X 2,4-D CIPV4 (F1 hybrid maize plants [2]; CTP B): 10
- 16X 2,4-D CIPV8 (F1 hybrid maize plants [2]; CTP B): 15
- 4X 2,4-D CIPV4 (F1 hybrid maize plants [2]; CTP C): 5
- 4X 2,4-D CIPV8 (F1 hybrid maize plants [2]; CTP C): 5
- 8X 2,4-D CIPV4 (F1 hybrid maize plants [2]; CTP C): 5
- 8X 2,4-D CIPV8 (F1 hybrid maize plants [2]; CTP C): 10
- 16X 2,4-D CIPV4 (F1 hybrid maize plants [2]; CTP C): 10
- 16X 2,4-D CIPV8 (F1 hybrid maize plants [2]; CTP C): 17.5
- 4X 2,4-D CIPV4 (F1 hybrid maize plants [2]; no CTP): 5
- 4X 2,4-D CIPV8 (F1 hybrid maize plants [2]; no CTP): 5
- 8X 2,4-D CIPV4 (F1 hybrid maize plants [2]; no CTP): 7.5
- 8X 2,4-D CIPV8 (F1 hybrid maize plants [2]; no CTP): 10
- 16X 2,4-D CIPV4 (F1 hybrid maize plants [2]; no CTP): 10
- 16X 2,4-D CIPV8 (F1 hybrid maize plants [2]; no CTP): 22.5
